{
  "source": "paper PMC2602735",
  "key": {"[1]": {"biological_target": "Sbi-III-IV (amino acids 150–266) (Staphylococcus aureus (entry printed for strain Newman)) (UniProt A6QJQ7)"}, "[2]": {"biological_target": "Sbi-E (amino acids 28–266) (Staphylococcus aureus (entry printed for strain Newman)) (UniProt A6QJQ7)"}},
  "data": [
    {"substance": "complement Factor H (from UniProt P08603 19-1231) (natural protein)", "values": [
      {"measurement": "inhibition of alternative pathway-mediated lyses of rabbit erythrocytes by human serum, increasing amounts of Sbi-III/IV", "setting": "[1]", "result": 600, "unit": "ng"},
      {"measurement": "inhibition of alternative pathway-mediated lyses of rabbit erythrocytes by human serum, increasing amounts of Sbi-E", "setting": "[2]", "result": 600, "unit": "ng"}
    ]}
  ]
}
